Measurements taken from patent publication US20250339531A1, “DUX4 POLYPEPTIDES AND NUCLEIC ACIDS FOR TREATING INFLAMMATORY AND AUTOIMMUNE CONDITIONS” (Fred Hutchinson Cancer Center, priority 2021, published 2025).

B1: P31947 (protein, UniProt P31947 1-248, looked up)
chain: MERASLIQKAKLAEQAERYEDMAAFMKGAVEKGEELSCEERNLLSVAYKNVVGGQRAAWRVLSSIEQKSNEEGSEEKGPEVREYREKVETELQGVCDTVLGLLDSHLIKEAGDAESRVFYLKMKGDYYRYLAEVATGDDKKRIIDSARSAYQEAMDISKKEMPPTNPIRLGLALNFSVFHYEIANSPEEAISLAKTTFDEAMADLHTLSEDSYKDSTLIMQLLRDNLTLWTADNAGEEGGEAPQEPQS
modifications: full-length
B2: P10809 (protein, UniProt P10809 1-573, looked up)
chain: MLRLPTVFRQMRPVSRVLAPHLTRAYAKDVKFGADARALMLQGVDLLADAVAVTMGPKGRTVIIEQSWGSPKVTKDGVTVAKSIDLKDKYKNIGAKLVQDVANNTNEEAGDGTTTATVLARSIAKEGFEKISKGANPVEIRRGVMLAVDAVIAELKKQSKPVTTPEEIAQVATISANGDKEIGNIISDAMKKVGRKGVITVKDGKTLNDELEIIEGMKFDRGYISPYFINTSKGQKCEFQDAYVLLSEKKISSIQSIVPALEIANAHRKPLVIIAEDVDGEALSTLVLNRLKVGLQVVAVKAPGFGDNRKNQLKDMAIATGGAVFGEEGLTLNLEDVQPHDLGKVGEVIVTKDDAMLLKGKGDKAQIEKRIQEIIEQLDVTTSEYEKEKLNERLAKLSDGVAVLKVGGTSDVEVNEKKDRVTDALNATRAAVEEGIVLGGGCALLRCIPALDSLTPANEDQKIGIEIIKRTLKIPAMTIAKNAGVEGSLIVEKIMQSSSEVGYDAMAGDFVNMVEKGIIDPTKVVRTALLDAAGVASLLTTAEVVVTEIPKEEKDPGMGAMGGMGGGMGGGMF
modifications: full-length
B3: RPN1 (protein)
chain: ASSEAPPLINEDVKRTVDLSSHLAKVTAEVVLAHLGGGSTSRATSFLLALEPELEARLAHLGVQVKGEDEEENNLEVRETKIKGKSGRFFTVKLPVALDPGAKISVIVETVYTHVLHPYPTQITQSEKQFVVFEGNHYFYSPYPTKTQTMRVKLASRNVESYTKLGNPTRSEDLLDYGPFRDVPAYSQDTFKVHYENNSPFLTITSMTRVIEVSHWGNIAVEENVDLKHTGAVLKGPFSRYDYQRQPDSGISSIRSFKTILPAAAQDVYYRDEIGNVSTSHLLILDDSVEMEIRPRFPLFGGWKTHYIVGYNLPSYEYLYNLGDQYALKMRFVDHVFDEQVIDSLTVKIILPEGAKNIEIDSPYEISRAPDELHYTYLDTFGRPVIVAYKKNLVEQHIQDIVVHYTFNKVLMLQEPLLVVAAFYILFFTVIIYVRLDFSITKDPAAEARMKVACITEQVLTLVNKRIGLYRHFDETVNRYKQSRDISTLNSGKKSLETEHKALTSEIALLQSRLKTEGSDLCDRVSEMQKLDAQVKELVLKSAVEAERLVAGKLKKDTYIENEKLISGKRQELVTKIDHILDAL
B4: SERPINH1 (protein)
chain: AEVKKPAAAAAPGTAEKLSPKAATLAERSAGLAFSLYQAMAKDQAVENILVSPVVVASSLGLVSLGGKATTASQAKAVLSAEQLRDEEVHAGLGELLRSLSNSTARNVTWKLGSRLYGPSSVSFADDFVRSSKQHYNCEHSKINFRDKRSALQSINEWAAQTTDGKLPEVTKDVERTDGALLVNAMFFKPHWDEKFHHKMVDNRGFMVTRSYTVGVMMMHRTGLYNYYDDEKEKLQIVEMPLAHKLSSLIILMPHHVEPLERLEKLLTKEQLKIWMGKMQKKAVAISLPKGVVEVTHDLQKHLAGLGLTEAIDKNKADLSRMSGKKDLYLASVFHATAFELDTDGNPFDQDIYGREELRSPKLFYADHPFIFLVRDTQSGSLLFIGRLVRPKGDKMRDEL
B5: AP2B1 (protein)
chain: TDSKYFTTNKKGEIFELKAELNNEKKEKRKEAVKKVIAAMTVGKDVSSLFPDVVNCMQTDNLELKKLVYLYLMNYAKSQPDMAIMAVNSFVKDCEDPNPLIRALAVRTMGCIRVDKITEYLCEPLRKCLKDEDPYVRKTAAVCVAKLHDINAQMVEDQGFLDSLRDLIADSNPMVVANAVAALSEISESHPNSNLLDLNPQNINKLLTALNECTEWGQIFILDCLSNYNPKDDREAQSICERVTPRLSHANSAVVLSAVKVLMKFLELLPKDSDYYNMLLKKLAPPLVTLLSGEPEVQYVALRNINLIVQKRPEILKQEIKVFFVKYNDPIYVKLEKLDIMIRLASQANIAQVLAELKEYATEVDVDFVRKAVRAIGRCAIKVEQSAERCVSTLLDLIQTKVNYVVQEAIVVIRDIFRKYPNKYESIIATLCENLDSLDEPDARAAMIWIVGEYAERIDNADELLESFLEGFHDESTQVQLTLLTAIVKLFLKKPSETQELVQQVLSLATQDSDNPDLRDRGYIYWRLLSTDPVTAKEVVLSEKPLISEETDLIEPTLLDELICHIGSLASVYHKPPNAFVEGSHGIHRKHLPIHHGSTDAGDSPVGTTTATNLEQPQVIPSQGDLLGDLLNLDLGPPVNVPQVSSMQMGAVDLLGGGLDSLVGQSFIPSSVPATFAPSPTPAVVSSGLNDLFELSTGIGMAPGGYVAPKAVWLPAVKAKGLEISGTFTHRQGHIYMEMNFTNKALQHMTDFAIQFNKNSFGVIPSTPLAIHTPLMPNQSIDVSLPLNTLGPVMKMEPLNNLQVAVKNNIDVFYFSCLIPLNVLFVEDGKMERQVFLATWKDIPNENELQFQIKECHLNADTVSSKLQNNNVYTIAKRNVEGQDMLYQSLKLTNGIWILAELRIQPGNPNYTLSLKCRAPEVSQYIYQVYDSILKN
B6: P04844 (protein, UniProt P04844 1-631, looked up)
chain: MAPPGSSTVFLLALTIIASTWALTPTHYLTKHDVERLKASLDRPFTNLESAFYSIVGLSSLGAQVPDAKKACTYIRSNLDPSNVDSLFYAAQASQALSGCEISISNETKDLLLAAVSEDSSVTQIYHAVAALSGFGLPLASQEALSALTARLSKEETVLATVQALQTASHLSQQADLRSIVEEIEDLVARLDELGGVYLQFEEGLETTALFVAATYKLMDHVGTEPSIKEDQVIQLMNAIFSKKNFESLSEAFSVASAAAVLSHNRYHVPVVVVPEGSASDTHEQAILRLQVTNVLSQPLTQATVKLEHAKSVASRATVLQKTSFTPVGDVFELNFMNVKFSSGYYDFLVEVEGDNRYIANTVELRVKISTEVGITNVDLSTVDKDQSIAPKTTRVTYPAKAKGTFIADSHQNFALFFQLVDVNTGAELTPHQTFVRLHNQKTGQEVVFVAEPDNKNVYKFELDTSERKIEFDSASGTYTLYLIIGDATLKNPILWNVADVVIKFPEEEAPSTVLSQNLFTPKQEIQHLFREPEKRPPTVVSNTFTALILSPLLLLFALWIRIGANVSNFTFAPSTIIFHLGHAAMLGLMYVYWTQLNMFQTLKYLAILGSVTFLAGNRMLAQQAVKRTAH
modifications: full-length
B7: HNRNPH1 (protein)
chain: MMLGTEGGEGFVVKVRGLPWSCSADEVQRFFSDCKIQNGAQGIRFIYTREGRPSGEAFVELESEDEVKLALKKDRETMGHRYVEVFKSNNVEMDWVLKHTGPNSPDTANDGFVRLRGLPFGCSKEEIVQFFSGLEIVPNGITLPVDFQGRSTGEAFVQFASQEIAEKALKKHKERIGHRYIEIFKSSRAEVRTHYDPPRKLMAMQRPGPYDRPGAGRGYNSIGRGAGFERMRRGAYGGGYGGYDDYNGYNDGYGFGSDRFGRDLNYCFSGMSDHRYGDGGSTFQSTTGHCVHMRGLPYRATENDIYNFFSPLNPVRVHIEIGPDGRVTGEADVEFATHEDAVAAMSKDKANMQHRYVELFLNSTAGASGGAYEHRYVELFLNSTAGASGGAYGSQMMGGMGLSNQSSYGGPASQQLSGGYGGGYGGQSSMSGYGNQGAVNSSYYSSGSRASMGVNGMGGLSSMSSMSGGWGM
B8: PDIA3 (protein)
chain: SDVLELTDDNFESRISDTGSAGLMLVEFFAPWCGHCKRLAPEYEAAATRLKGIVPLAKVDCTANTNTCNKYGVSGYPTLKIFRDGEEAGAYDGPRTADGIVSHLKKQAGPASVPLRTEEEFKKFISDKDASIVGFFDDSFSEAHSEFLKAASNLRDNYRFAHTNVESLVNEYDDNGEGIILFRPSHLTNKFEDKTVAYTEQKMTSGKIKKFIQENIFGICPHMTEDNKDLIQGKDLLIAYYDVDYEKNAKGSNYWRNRVMMVAKKFLDAGHKLNFAVASRKTFSHELSDFGLESTAGEIPVVAIRTAKGEKFVMQEEFSRDGKALERFLQDYFDGNLKRYLKSEPIPESNDGPVKVVVAENFDEIVNNENKDVLIEFYAPWCGHCKNLEPKYKELGEKLSKDPNIVIAKMDATANDVPSPYEVRGFPTIYFSPANKKLNPKKYEGGRELSDFISYLQREATNPPVIQEEKPKKKKKAQEDL
B9: ASPH (protein)
chain: MAQRKNAKSSGNSSSSGSGSGSTSAGSSSPGARRETKHGGHKNGRKGGLSGTSFFTWFMVIALLGVWTSVAVVWFDLVDYEEVLGKLGIYDADGDGDFDVDDAKVLLGLKERSTSEPAVPPEEAEPHTEPEEQVPVEAEPQNIEDEAKEQIQSLLHEMVHAEHVEGEDLQQEDGPTGEPQQEDDEFLMATDVDDRFETLEPEVSHEETEHSYHVEETVSQDCNQDMEEMMSEQENPDSSEPVVEDERLHHDTDDVTYQVYEEQAVYEPLENEGIEITEVTAPPEDNPVEDSQVIVEEVSIFPVEEQQEVPPETNRKTDDPEQKAKVKKKKPKLLNKFDKTIKAELDAAEKLRKRGKIEEAVNAFKELVRKYPQSPRARYGKAQCEDDLAEKRRSNEVLRGAIETYQEVASLPDVPADLLKLSLKRRSDRQQFLGHMRGSLLTLQRLVQLFPNDTSLKNDLGVGYLLIGDNDNAKKVYEEVLSVTPNDGFAKVHYGFILKAQNKIAESIPYLKEGIESGDPGTDDGRFYFHLGDAMQRVGNKEAYKWYELGHKRGHFASVWQRSLYNVNGLKAQPWWTPKETGYTELVKSLERNWKLIRDEGLAVMDKAKGLFLPEDENLREKGDWSQFTLWQQGRRNENACKGAPKTCTLLEKFPETTGCRRGQIKYSIMHPGTHVWPHTGPTNCRLRMHLGLVIPKEGCKIRCANETKTWEEGKVLIFDDSFEHEVWQDASSFRLIFIVDVWHPELTPQQRRSLPAI

System: proteins that co-immunoprecipitated with DUX4-CTD constructs expressed in MB135 myoblasts
Test: LC-MS of proteins co-immunoprecipitated with DUX4-CTD (Table 1) and western validation
Format: binding, human
Set-up: key to 4. mL1dL2 + Dox + IFNG / 4. + IFNG mix / 4. longCTD + Dox + IFNG / 3. + IFNg + Dox longCTD / 3. + Dox longCTD / 3. + IFNG longCTD: peptide-spectrum matches (PSMs) per protein
Conditions: for 4. longCTD + Dox + IFNG: LC-MS counts of the listed protein co-immunoprecipitated with DUX4-CTD bait longCTD; for 3. + IFNg + Dox longCTD: experiment 3, IFNg + Dox; for SUM of PSMS: sum over all samples
In short: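 Two independent experiments compared uninduced, doxycycline and doxycycline+IFNG MB135iDUX4-CTD (plus MB135iDUX4mL1dL2) myoblasts. Anti-FLAG pulldowns (3 h, 4 °C) were eluted in LDS buffer for western validation or with FLAG peptide for trypsin digestion and Orbitrap LC-MS; hits needed ≥2 PSMs in both experiments, ranked by total PSMs.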

[1] = LC-MS counts of the listed protein in anti-FLAG co-IP, experiment 4, IFNG, no doxycycline, mix, MB135 myoblasts
[2] = LC-MS counts of the listed protein co-immunoprecipitated with DUX4-CTD bait mL1dL2, experiment 4, Dox + IFNG
[3] = LC-MS value per protein co-immunoprecipitated from MB135 myoblasts, + IFNG mix sample (no Dox), kind of count not given
[4] = LC-MS value per protein co-immunoprecipitated with DUX4-CTD construct mL1dL2 in MB135 myoblasts, + Dox + IFNG, kind of count not given

Molecule	3. + IFNg + Dox longCTD (bait longCTD)	SUM of PSMS	4. + IFNG mix [3]	4. mL1dL2 + Dox + IFNG [4]	other results
B1	1	8			4. longCTD + Dox + IFNG (experiment 4, Dox + IFNG): 6; 4. + IFNG mix [1]: 1
B2	2	17			4. longCTD + Dox + IFNG (experiment 4, Dox + IFNG): 5; 4. mL1dL2 + Dox + IFNG [2]: 4; 4. + IFNG mix [1]: 5; 3. + Dox longCTD (bait longCTD, experiment 3, Dox only): 1
B3			2	7	
B4			5	5	
B5				1	
B6	4	7			4. mL1dL2 + Dox + IFNG [2]: 3
B7				7	
B8			9	3	
B9				1	
